Results on 19 sequences are retold here after the DeepSol protein solubility set.

A short description of this series: soluble on expression in E. coli; label from the status in PepcDB or PDB records.
On to “MGSDKIHHHHHHMEKKVICQDIFWSCDGTSFVSVHNDFGIRQYLVPEESNTDKLNRNLLLPFTRFFRNQSIVSCAIDPFYTLYNENSDRLAGDRIVVGGKNFPLQLYSLMDGQCILSYDTMNKINGEYETVYSVKIDVESRVYTGSCRNKVAIYDKSRRDAVWMNQSTKKASKGRQSIISCFEEQPMGGQALSRGSLLCGSYANEMFQVDCRHQRLERLNYTRTVAGGIVQILTSDNGRYVYVVRRNSDAISIYDRRNLQHELNVLRLPFRIHHNSAKLKAYIDTAYGLSMGTPQGTILNWGRDLVEFGGVPSHNSVEDPLITSIPPESEWRTNLDSTIPATVVKNCPGDPELFALSHGGTISLCRFGG”, for which the “soluble on expression in E. coli” value is listed as “not soluble”. The same measure for “MGSDKIHHHHHHMIRDARVLRAGFVPREVEHRDAEVNHLSSVLEPITNGEPADTAIVTGPSGAGKTCISQFVTERLREEVLDVETTYVNCWRNYTRFRTLYQILDDLGATIDIHRQSTPHDELVDRLQQHDGPRTVVILDEVDQLEDPSVIYDLHSLPQFAIICIANKEEELFSRVDDRLVSRLRSSEHVRMDKYHDEQLYDILSARAKWGLDEDVITDDQLYRIADAAAGDARLAIGILRTAAGKADRENHERITDDILLNAAEDARAQIKQKSLDSLTPHQRVVYDIVREHGPIGPSEIHERYSEDVDDPRTKRTIRTYLSKMEQYNLLEAEGTSRDREYSLVDSAAASPMQ”: “not soluble”; for “MTPIHVVGIGLDGLPGLAAAVQQIIDSATLLVGSDRHLQLIPQGDTPRLSLGNFNASLKAIQTHLDTTANPQVVILTSGDPLFYGLGRWLLEVFAPDQLTFHPHLSAVQLAFSRLKLPWQDAVIYSAHGRDLAGLVPLLQRGVEKIAIYTDGEANIAAISRLYQALHIPVTYRAWVCQALGSAEEAILPWDLAQPVTALPPVHPLNLVVLLRQPQRLPPREQPIVGLGDDQFFTFADRPSLMTKREVRVLVLAELALTSTVEIVWDIGAGTGSVAVEIARLAPQATIYAIEKTAIGFQLIERNRRAFGLANLIPLQGTAPQCLRDLPPPDRVFIGGSGAQLLANLDYCWSHLNAGGRLVLAIATLEHQGQVLHWCQTHQINPQVLQVQLSRSVPLGQGHRLHPLNPVTLMTLTQGLEHHHHHH”: “not soluble”; for “MARNSTLTNLFLSTKRNMGRLISHIVKADDIDDIVQETFIKTYEADLKQEIKYVRSYMLKTAKNLALNHVARWDNKYNDSLEDFSQPPVQLTSGKVEDDYESKEQFLFFCRATDQLSGSVRKCFILKKVYGLSQKEIASYLNLSESTVEKHIAQGLLKSTKYIKRMNHGHSVKGAKQNHQVHSLQVKKTVLK”: “not soluble”.

Take “MSSETLEFSGCNFFRIRLAYSILSGRPIRIINIRKNDDRPGIRDFESKLIGLLEKVTNGTKVEISRTGTQVIFRPGMITGGVVNLDCGTERCISYFLEPLLLLSPFCKVPMVIKLKGVTNAPGEISVDGMKASWLKVYNKFVLNDEKLDIKIQARGLKPEGGGVVVFTAPIVKTLRPVKRQQVGKVCKIRGQAYVTKVTPSLAYRMIDAAKKAMHGYISDVYITVDQRKGDAGGASPGYGLFLTAETTEGVIYQAEAISRPKGESGVPILPEDIGIEAGHALLQQIYMGGALDSSAQILASTFMTLCPKDVSHFLYGPLPMYSVHALRHLKQFFEIEFKMEDFKKTLKEEEADLKTGSADKAMVTAVGVGYSNLNKTIL”: the “soluble on expression in E. coli” value is reported as “not soluble”. The same measure for “MGYVGIKIRLTDVAPQAQELFKKESLDVKENKVYLVAATLRPETMYGQTCCFVSPKIDYGVFDAGNGDYFITTERAFKNMSFQNLTPKRGYYKPLFTINGKTLIGSRIDAPYAVNKNLRVLPMETVLATKGTGVVTCVPSDSPDDFVTTRDLANKPEYYGIEKDWVQTDIVPIVHTEKYGDKCAEFLVNDLKIQSPKDSVQLANAKELAYKEGFYNGTMLIGKYKGDKVEDAKPKVKQDLIDEGLAFVYNEPELEHHHHHH”: “soluble”; for “MPHAPQEQIAPLLTTEGWELLASLGPYREADSFSVNAHLRKAGHSPELVAAVLTQSRLRTRAEAKFGEFARQMLFTQAGLEQATRLNVAARHAERFAKAGISHVADLGCGLGADSMAMASMDISVTAVEMDETTAACATINLMPFPHATVVHADATSVELDGMDGVWLDPARRTTSTSGTKRIWDPEAFSPPLSFVERLAATGRAIGVKMGPGIPHDSVPPGCEAQWVSVGGDVTEVTLWFNAVARPGVRRAALVIGNQGAAEITSGADFDGGPVAAVGPVEGFLYEPDGAVIRAGLVADVAGRLGGHLVDEHIAYICAPELHDTPFARAFKVLEVMPYNVKALKAWVKNQGITVLDIKKRGTAVTPEELRKQLLPAKPVKGKDAKTATLVLTRIGEERVAVVVEPVTA”: “soluble”; for “MSGSLEIPGLDDGLLPVETGYGLFQGTAKKRVVICNDNDKFRHSGPLPRALCGSFAAIGLLPLPVVETRPAPPPKVAPITPALQGKACGQAVFEGLRNKNAVETVDNLPALRQTARTGKRWKALESLMQETPAIIYKIVPETLWTAARAEGMFEGAAIDLTDGFIHFSTAKQVAETAARHFSGQVDLLLIAVDGAALGDKLVYEPSRGGDLFPHLYAPLPFSAVLWETPLSLDHDGQHQFPEILLEHHHHHH”: “not soluble”. Take “MDRNPSEPERIDWKNPITWISYLYTSFVYYLWLISSHLPHLPQPQRITDDKSTEQITRDAGIPRTEIVTRGDATQTVRQVAGLGDPAPKDSSLLPPSSSFVYCNNCLTPHSSQRTCSPAYVSTLSRQKSLTLLKKLKKPSSSASSTTTTTSSTVSFRAPSRASSTISDASTIRPSELIAIVPSGSHVLLRVPKLDWKTESIRIKRTRMSDWMDAEQRDVMRQFDEVIRSEEEDERTSRKRNGIFKDGSVRSIESLESRSRSKETPVFVPPPPPPTDAMPYLPRLAELNKGTPDQEFGFNLHAERGRGHFIGTVDAGGIGEKAGLEAGQRIVGVNGQLIYPTTGHKEVVALIKKDTMKTTLLVASEDVDKYHKDHNIAYSWDNVERVDTRPVINVETHHHHEEVSVPKSNGYDVPPLNPHSIQVNEEREISKMTTTTRTETITNSNSAYQYKESSTAYDAYATPPVDSNDLMDEVFGRVNLPGVTMSSHTEVLPPTDDISSVSSLSSHRESAVDVPVSHQYVPSYATESHQKHEQHSQTHHHHHQHQQPSPLSNGSSHGYAASSTSGYDDDDIYHLSAREARERLRMKNRKHHLHEMSLNEKYQLVSNM”: the “soluble on expression in E. coli” value is given as “not soluble”. The same measure for “MTRSDRPYRGVEAAERLATRRRQSLSAGLDLLGSDQHDIAELTIRTICRRAGLSVRYFYESFTDKDEFVGRVFDWVVAELVATTQAAVTAVPAREQTRAGMANIVRTITADARVGRLLFSTQLANAVITRKRAESSALFAMLSGQHAVDTLHAPANDHVKAVAHFAVGGVGQTISAWLAGDVRLDPDQLVDQLAALLDELTDPNLSRPRVAATAAKSGANDPQPPEVAGQPPSSARPARRS”: “soluble”; for “SLPSAQAPSLLNPTDDFAALGNIAWLWMNSPMHRDWPVHLLARNTLAPIQLGQYILLRCNDVPVAYCSWALMDADTELSYVMAPSSLGGNAWNCGDRLWIIDWIAPFSRDDNRALRRALAERHPDSVGRSLRVRRGGDTARVKEYRGRALDAAAARAQLDRYHAELIAGLRASNGGYAPR”: “soluble”.

On to “QTFGHGQARAFVLSPVMPVWDQGAFAGPLIEHFIRSGHQVTVFDSLSLPAVPDECFSGFAERWADALEPWGVPDVLVGVALGGALAQALAGISFLSVTPALLLLSSPSKADALLDARLGRMADLAEQGHVRQAKRLLDELVLPEGQAHAEQDRFDTETDALLAPQGRRLVRGFRLLDGVNVSERLCDYEGRVLSVFGGKSQLVGADHVLRTKGSNQHS”, for which the “soluble on expression in E. coli” value is “not soluble”. The same measure for “MQAKIAASNTGELDALQQLGFSLVEGEVDLALPVNNASDSGAVVAQETDIPALRQLASAAFAQSRFRAPWYAPDASSRFYAQWIENAVRGTFDHQCLILRAASGDIRGYVSLRELNATDARIGLLAGRGAGAELMQTALNWAYARGKTTLRVATQMGNTAALKRYIQSGANVESTAYWLYR”: “not soluble”. Regarding “MSVSSEISASKLPYVRIPGSKPVPRLLKWTIFKCSFMKIRTIGLHHPDGRLYFFEFCQGKDTFVPHVCSACLPIITEKDLFPDYIVWAEEIEDYVIFAFSSMSNKMEQFVYSFETRRFVEVDLPELVYNRGDATTGDIVAALYGENETIVIERDENGAMLIRSFVHKDNSRKPVNTLVMQNIEKNGLQVGKDEEVTDISNEFGYLDYVETLPELKIKTCSANRTSIHVFSKKTGRYLKYHYVINTGSFINTSNLDCSNCNSVTSEKYLLPEYSVYSKALDARVIHCTNNLTSDIEQYTFNPDTNAFEQVYCKELVYDPNRFNRASLAAYVFPENVANNGTVIISRDVYEVIQKEKYSIVTDEYVVLPAAPVKTFAVRIQEEKQKKLDEEEQQKVLKTQELEKQKDGQIVIMELEMKEMTTLLEEKDTRIKMHVEKHRDKECELELVRRKLDDCVVRMQGAFERDIKLEEAKVQASREAKKQYENLMTILGEKE”, the “soluble on expression in E. coli” value was “not soluble”. The same measure for “MSLNILISGIHGFVGSNFIRALKDKHTLYGLDIVSPAKEGVVTTFSWQDFEPTSFPFQTLPQFDAIIHLAGKAHDTKKQSAAQSYFDINTGLTQKIFDFFLESSAKKFIFFSSVKAAADSVVGDVLTEDVIPTPVGPYGESKIKAEEYIKNHFMFPTSSISEDRSLRLEKEKGRIPKNKQVYILRPCMIHGPGNKGNLNLLYNVVKKGIPWPLGDFDNRRSFTSIDNLCYVIEGLLNQDVPTGIYHMGDDEALSTNELIGIMCEAMGKKPHIWKMNKRVMEGCAGLGTLMHLPLNTERLRKLTENYVVSNAKIKAALGIDKLPVTAKEGLMKTIRSFEETKEGHHHHHH”: “soluble”; for “MAAAAELSLLEKSLGLSKGNKYSAQGERQIPVLQTNNGPSLMGLTTIAAHLVKQANKEYLLGSTAEEKAMVQQWLEYRVTQVDGHSSKNDIHTLLMDLNSYLEDKVYLTGYNFTLADILLYYGLHRFIVDLTVQEKEKYLNVSRWFCHIQHYPGIRQHLSSVVFIKNRLYTNSH”: “soluble”; for “MDITEKLRLITRNAEEVVTEEELRQLIETKEKPRAYVGYEPSGEIHLGHMMTVQKLMDLQEAGFEIIVLLADIHAYLNEKGTFEEIAEVADYNKKVFIALGLDESRAKFVLGSEYQLSRDYVLDVLKMARITTLNRARRSMDEVSRRKEDPMVSQMIYPLMQALDIAHLGVDLAVGGIDQRKIHMLARENLPRLGYSSPVCLHTPILVGLDGQKMSSSKGNYISVRDPPEEVERKIRKAYCPAGVVEENPILDIAKYHILPRFGKIVVERDAKFGGDVEYASFEELAEDFKSGQLHPLDLKIAVAKYLNMLLEDARKRLGVSV”: “soluble”. Regarding “MGSDKIHHHHHHMIILFGNQKGGCGKTTNCIQFANYLVEKGKEVLVLDLDFQRSLSDRRKEDIATYDNEPKYEVIQTDISNVAKIISDFTKVEQGNLLIDLPGKIDDDALGTILKAADIIICPFKYDKFTMDSTGFFIQVLQYLNVKAKIFFLPNNMRAAVRYETKEQVVDILKQVGFVTDEIPASVAMERINTLTISNECIDKVKNAYDYIIQEGAIK”, the “soluble on expression in E. coli” value is given as “not soluble”. The same measure for “MSAETATIPEVSNQETKAEKVIADSLEAKKDESAAVEINGSSTHENGDTNIEKKTEEPVVEAKVSEEPATTSETPAAQVTESQKDEKTDDAPAEPAEVAVEAAKEEPVVEEKKEDAPEPVVTEEKKSEEAPAPEEKKSEEVVAAEEKKEPAAVVEEKKEVPETPVVEDKKEEAPASSEEKKDEPVVNTEEKKDAAEAPAADEESEAAEEKVAETTVAPVATPSGRGRGRGRGRPPGPNATPKAAASEKKRAAKPKAAVNPESIAASRPRRSTSNRIDYANSDTSTVLAEVDDEIPGKLFRGRKPPRGKITKYVSDSDGAPSDEDDVDFGKKKKGAPSTRGRGRPPSSNRPTRAAATKRSAKDASDESNEDEIEYDDKSDEDVSPRKKARGAPARAAADDEDDEGEEMDASEEVEA”: “not soluble”.
